According to patent US20260250421A1 (BIOCYTOGEN PHARMACEUTICALS BEIJING, published 2026):

T1: His-tagged cynomolgus monkey PTK7 protein (cynomolgus monkey, UniProt A0A2K5VNI5 39-712)
T1 construct: Bought protein; also called cPTK7-His; ACRO Biosystems Cat# PT7-C52H3; not shown: His tag
T1 sequence: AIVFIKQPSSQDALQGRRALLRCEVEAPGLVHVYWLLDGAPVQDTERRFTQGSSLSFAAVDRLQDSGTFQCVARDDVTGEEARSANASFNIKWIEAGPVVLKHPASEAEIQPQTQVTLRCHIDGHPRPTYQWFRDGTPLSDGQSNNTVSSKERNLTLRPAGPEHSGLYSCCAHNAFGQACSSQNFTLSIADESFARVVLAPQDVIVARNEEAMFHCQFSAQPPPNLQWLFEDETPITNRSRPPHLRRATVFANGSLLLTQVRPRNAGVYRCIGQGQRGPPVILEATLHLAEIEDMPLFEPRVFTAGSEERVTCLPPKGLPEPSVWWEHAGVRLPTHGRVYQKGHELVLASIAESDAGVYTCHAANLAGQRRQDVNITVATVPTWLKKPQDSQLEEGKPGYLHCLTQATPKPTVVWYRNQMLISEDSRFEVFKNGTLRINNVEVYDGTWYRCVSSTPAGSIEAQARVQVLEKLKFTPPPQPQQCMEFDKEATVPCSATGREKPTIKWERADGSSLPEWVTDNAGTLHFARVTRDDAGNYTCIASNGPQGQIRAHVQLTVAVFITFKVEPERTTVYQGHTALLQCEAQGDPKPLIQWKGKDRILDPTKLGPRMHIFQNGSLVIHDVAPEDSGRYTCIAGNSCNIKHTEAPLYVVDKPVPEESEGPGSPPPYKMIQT

T2: His-tagged human TROP2 protein (human, UniProt P09758 27-274)
T2 construct: Bought protein; also called hTROP2-His; ACRO Biosystems Cat# TR2-H5223; not shown: His tag
T2 sequence (looked up): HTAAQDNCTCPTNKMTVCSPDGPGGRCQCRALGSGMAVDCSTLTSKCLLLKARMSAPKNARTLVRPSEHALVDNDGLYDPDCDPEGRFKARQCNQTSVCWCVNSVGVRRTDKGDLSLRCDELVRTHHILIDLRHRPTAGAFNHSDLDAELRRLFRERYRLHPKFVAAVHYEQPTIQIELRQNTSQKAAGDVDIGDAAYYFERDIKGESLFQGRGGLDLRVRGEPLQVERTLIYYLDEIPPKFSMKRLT

T3: His-tagged human PTK7 protein (human, UniProt Q13308 31-704)
T3 construct: Bought protein; also called hPTK7-His; not shown: His tag
T3 sequence: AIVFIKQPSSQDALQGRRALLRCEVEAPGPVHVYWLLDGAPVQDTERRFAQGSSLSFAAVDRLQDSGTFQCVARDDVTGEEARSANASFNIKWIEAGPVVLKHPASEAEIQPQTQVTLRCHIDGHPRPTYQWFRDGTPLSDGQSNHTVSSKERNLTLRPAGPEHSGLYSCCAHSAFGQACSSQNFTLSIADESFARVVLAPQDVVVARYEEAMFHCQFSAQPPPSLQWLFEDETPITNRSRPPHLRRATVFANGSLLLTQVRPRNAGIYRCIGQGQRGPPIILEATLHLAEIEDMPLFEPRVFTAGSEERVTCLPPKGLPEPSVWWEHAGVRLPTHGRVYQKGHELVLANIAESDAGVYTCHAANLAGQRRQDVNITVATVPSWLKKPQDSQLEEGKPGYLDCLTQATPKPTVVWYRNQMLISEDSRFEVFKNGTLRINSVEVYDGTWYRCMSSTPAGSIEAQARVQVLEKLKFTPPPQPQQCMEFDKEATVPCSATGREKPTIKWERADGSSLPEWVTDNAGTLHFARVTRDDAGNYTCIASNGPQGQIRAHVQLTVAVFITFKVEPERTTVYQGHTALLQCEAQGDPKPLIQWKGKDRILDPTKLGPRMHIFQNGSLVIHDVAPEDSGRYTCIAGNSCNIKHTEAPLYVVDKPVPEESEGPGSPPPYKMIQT

T4: His-tagged dog PTK7 protein (dog, UniProt Q13308 31-703 (human entry))
T4 construct: also called dPTK7-His
T4 chain: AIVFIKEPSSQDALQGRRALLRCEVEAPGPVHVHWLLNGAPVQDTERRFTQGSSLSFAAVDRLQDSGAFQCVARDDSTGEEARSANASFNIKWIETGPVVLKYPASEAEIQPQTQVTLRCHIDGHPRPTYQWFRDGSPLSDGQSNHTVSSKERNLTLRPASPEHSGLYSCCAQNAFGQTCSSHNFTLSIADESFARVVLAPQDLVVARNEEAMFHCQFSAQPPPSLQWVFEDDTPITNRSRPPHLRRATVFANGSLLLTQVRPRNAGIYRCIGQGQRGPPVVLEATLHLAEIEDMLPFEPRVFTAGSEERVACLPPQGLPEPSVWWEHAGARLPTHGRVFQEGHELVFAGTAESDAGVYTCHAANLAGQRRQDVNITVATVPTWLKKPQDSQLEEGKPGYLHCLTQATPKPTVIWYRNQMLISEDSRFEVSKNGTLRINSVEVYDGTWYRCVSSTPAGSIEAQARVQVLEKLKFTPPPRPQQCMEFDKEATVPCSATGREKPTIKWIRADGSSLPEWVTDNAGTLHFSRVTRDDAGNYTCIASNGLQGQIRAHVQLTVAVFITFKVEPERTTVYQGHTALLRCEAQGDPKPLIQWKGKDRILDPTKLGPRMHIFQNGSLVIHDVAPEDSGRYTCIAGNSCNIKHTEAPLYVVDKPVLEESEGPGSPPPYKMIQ

T5: His-tagged monkey TROP2 protein (cynomolgus monkey; Rhesus …, UniProt A0A5F8AGB8 27-274)
T5 construct: also called cTROP2-His; ACRO Biosystems Cat# TR2-R52H3
T5 sequence: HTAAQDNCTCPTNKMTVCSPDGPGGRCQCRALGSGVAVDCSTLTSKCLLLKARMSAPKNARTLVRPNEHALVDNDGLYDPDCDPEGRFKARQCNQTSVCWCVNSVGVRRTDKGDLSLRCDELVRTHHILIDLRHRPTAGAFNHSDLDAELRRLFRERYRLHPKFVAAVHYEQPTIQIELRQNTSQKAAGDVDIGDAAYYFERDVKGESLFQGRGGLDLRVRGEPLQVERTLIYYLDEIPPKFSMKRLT


Experiments:
Assay in all cases: SPR Biacore 8K, Ab on Protein A chip
[1] = target: T1, His-tagged cynomolgus monkey PTK7 …
Procedure: (§1) The affinity of the anti-PTK7/TROP2 bispecific antibodies to His-tagged human TROP2 protein (hTROP2-His, ACRO Biosystems Inc., Cat #: TR2-H5223), His-tagged […] monkey TROP2 protein (cTROP2-His, ACRO Biosystems Inc., Cat #: Cat: TR2-R52H3), His-tagged dog TROP2 protein (dTROP2-His, ACRO Biosystems Inc., Cat #: TR2-C52H4), hPTK7-His, cPTK7-His and dPTK7-His were measured by surface plasmon resonance (SPR) using Biacore™ (Biacore, INC, Piscataway N.J.) 8K biosensor equipped with pre-immobilized Protein A sensor chips.

[2] = target: T2, His-tagged human TROP2 protein
Procedure: as §1

[3] = target: T3, His-tagged human PTK7 protein
Procedure: as §1

[4] = target: T4, His-tagged dog PTK7 protein
Procedure: as §1

[5] = target: T5, His-tagged monkey TROP2 protein

Row | Binder | Kd [1] | koff [1] | kon [1] | Kd [2] | koff [2] | kon [2] | Kd [3] | koff [3] | kon [3] | Kd [4] | koff [4] | kon [4] | Kd [5] | koff [5] | kon [5]
1 | 3C4-6F7 (bispecific antibody, human IgG1, kappa, Knobs-into-holes IgG1 with common light chain; also called anti-PTK7/TROP2 bispecific antibody 3C4-6F7) heavy 1: not shown heavy 2: EVQLVQSGPGLVKPSETLSLTCTVSGGSIDSGYYYWGWIRQPPGKGLEWIGSIYYIGTTYYIPSLKSRVTISVDTSKNRFSLKLTSVTAADTAVYYCARQPITVAGHDAFDIWGQGTMVTVSSASTKGPSVFPLAPSSKSTSGGTAALGCLVKDYFPEPVTVSWNSGALTSGVHTFPAVLQSSGLYSLSSVVTVPSSSLGTQTYICNVNHKPSNTKVDKKVEPKSCDKTHTCPPCPAPELLGGPSVFLFPPKPKDTLMISRTPEVTCVVVDVSHEDPEVKFNWYVDGVEVHNAKTKPREEQYNSTYRVVSVLTVLHQDWLNGKEYKCKVSNKALPAPIEKTISKAKGQPREPQVCTLPPSREEMTKNQVSLSCAVKGFYPSDIAVEWESNGQPENNYKTTPPVLDSDGSFFLVSKLTVDKSRWQQGNVFSCSVMHEALHNHYTQKSLSLSPGK light: not shown | 17.4 nM | 0.00216 s⁻¹ | 124000 M⁻¹ s⁻¹ | 10.6 nM | 0.00419 s⁻¹ | 394000 M⁻¹ s⁻¹ | 13.2 nM | 0.00152 s⁻¹ | 115000 M⁻¹ s⁻¹ | 52.5 nM | 0.006 s⁻¹ | 114000 M⁻¹ s⁻¹ | 5.94 nM | 0.00179 s⁻¹ | 301000 M⁻¹ s⁻¹
2 | 3E6-18E9 (bispecific antibody, V domains shown, also called anti-PTK7/TROP2 bispecific antibody 3E6-18E9) VH 1: QVQLVESGAEVKKPGESLRISCRGSGYSFTSYWISWVRQMPGKGLEWMGRIDPSDSYTKYSPSFQGHVTISADKSISTAYLQWSSLKASDTAMYYCARRDGDYFDFDYWGQGTLVTVSS VH 2: QLQLQQSGPGLLKPSETLSLTCTVSGGSISSSYYFWGWIRQPPGKGLEWIGAIYYIGNTHYNPSLKSRVTISIDTSKNQFSLNLNSVTAADTAIYYCARYEDTWNWFDPWGQGTLVTVSS VL: not shown | 5.2 nM | 0.000623 s⁻¹ | 120000 M⁻¹ s⁻¹ | 3.23 nM | 0.00116 s⁻¹ | 360000 M⁻¹ s⁻¹ | 3.14 nM | 0.000389 s⁻¹ | 124000 M⁻¹ s⁻¹ | 16.7 nM | 0.00164 s⁻¹ | 98300 M⁻¹ s⁻¹ | 3.66 nM | 0.00119 s⁻¹ | 325000 M⁻¹ s⁻¹
3 | 3C4-18F12 (bispecific antibody, V domains shown, also called anti-PTK7/TROP2 bispecific antibody 3C4-18F12) VH 1: QVQLEQSRAEVKKPGESLRISCKGSGYSFTSYWISWVRQMPGKGLEWMGRIDPSDSYTNYNPSFQGHVTISADKSISTAYLQWSSLKASDTAMYYCARRDGSYFDFDYWGQGTLVTVSS VH 2: QLQLKESGPGLVKPSETLSLTCTVSGGSISYYYWSWIRQPPGMGLEWIGNIYYSGDTNYNPSLRSRVTISIDMSKNQFSLRLNSVTAADTAVYYCARYDMFKWNYEAFDVWGQGTMVTVSS VL: not shown | 14.8 nM | 0.00173 s⁻¹ | 117000 M⁻¹ s⁻¹ | 11.2 nM | 0.0025 s⁻¹ | 224000 M⁻¹ s⁻¹ | 11.5 nM | 0.00139 s⁻¹ | 121000 M⁻¹ s⁻¹ | 36.2 nM | 0.00426 s⁻¹ | 118000 M⁻¹ s⁻¹ | 12.1 nM | 0.00252 s⁻¹ | 209000 M⁻¹ s⁻¹

These reach a lower Kd [1]. Values come first.

Row | Kd [1] | koff [1] | kon [1] | Kd [2] | koff [2] | kon [2] | Kd [3] | koff [3] | kon [3] | Kd [4] | koff [4] | kon [4] | Kd [5] | koff [5] | kon [5] | Binder
4 | 4.98 nM | 0.000649 s⁻¹ | 130000 M⁻¹ s⁻¹ | 13.7 nM | 0.00244 s⁻¹ | 178000 M⁻¹ s⁻¹ | 2.43 nM | 0.000329 s⁻¹ | 135000 M⁻¹ s⁻¹ | 16.4 nM | 0.00172 s⁻¹ | 105000 M⁻¹ s⁻¹ | 13.9 nM | 0.00231 s⁻¹ | 166000 M⁻¹ s⁻¹ | 3E6-18F12 (bispecific antibody, V domains shown, also called anti-PTK7/TROP2 bispecific antibody 3E6-18F12) VH 1: QVQLVESGAEVKKPGESLRISCRGSGYSFTSYWISWVRQMPGKGLEWMGRIDPSDSYTKYSPSFQGHVTISADKSISTAYLQWSSLKASDTAMYYCARRDGDYFDFDYWGQGTLVTVSS VH 2: QLQLKESGPGLVKPSETLSLTCTVSGGSISYYYWSWIRQPPGMGLEWIGNIYYSGDTNYNPSLRSRVTISIDMSKNQFSLRLNSVTAADTAVYYCARYDMFKWNYEAFDVWGQGTMVTVSS VL: not shown
5 | 4.6 nM | 0.000522 s⁻¹ | 114000 M⁻¹ s⁻¹ | 351 nM | 0.0455 s⁻¹ | 130000 M⁻¹ s⁻¹ | 2.67 nM | 0.000369 s⁻¹ | 138000 M⁻¹ s⁻¹ | 20.6 nM | 0.00197 s⁻¹ | 95500 M⁻¹ s⁻¹ | 8.07 nM | 0.00284 s⁻¹ | 352000 M⁻¹ s⁻¹ | 3E6-6F7 (bispecific antibody, V domains shown, also called anti-PTK7/TROP2 bispecific antibody 3E6-6F7) VH 1: QVQLVESGAEVKKPGESLRISCRGSGYSFTSYWISWVRQMPGKGLEWMGRIDPSDSYTKYSPSFQGHVTISADKSISTAYLQWSSLKASDTAMYYCARRDGDYFDFDYWGQGTLVTVSS VH 2: EVQLVQSGPGLVKPSETLSLTCTVSGGSIDSGYYYWGWIRQPPGKGLEWIGSIYYIGTTYYIPSLKSRVTISVDTSKNRFSLKLTSVTAADTAVYYCARQPITVAGHDAFDIWGQGTMVTVSS VL: not shown
